Assay results: US20200368341A1

Target: P. falciparum circumsporozoite protein (CSP) (Plasmodium falciparum) (UniProt P19597)
Assay: cell-based or functional assay

Chain of UniProt P19597 (P19597 19-374): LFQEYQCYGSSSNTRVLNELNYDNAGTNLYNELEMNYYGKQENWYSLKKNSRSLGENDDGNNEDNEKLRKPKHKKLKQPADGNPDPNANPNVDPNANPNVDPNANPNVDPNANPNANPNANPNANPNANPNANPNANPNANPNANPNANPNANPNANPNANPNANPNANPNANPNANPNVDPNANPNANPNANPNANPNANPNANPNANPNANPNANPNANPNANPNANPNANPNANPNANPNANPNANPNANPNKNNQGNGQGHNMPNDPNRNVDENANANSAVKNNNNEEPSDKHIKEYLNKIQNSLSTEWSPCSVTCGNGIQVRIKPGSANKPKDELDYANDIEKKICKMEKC

With monoclonal antibody 2A10 the in vitro liver invasion assay: parasite burden in liver cells against the pre-immune control serum was > 2 log.
